A short description of data set [1]: Thermal stability by differential scanning calorimetry (DSC). The class given is physicochemical. The conditions noted are these: 0.4 mg/mL in PBS, scan 20° C. to 100° C. at 60° C./hr. The method, boiled down: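 Humanized antibody variants at about 0.4 mg/mL in PBS scanned by capillary DSC from 20 °C to 100 °C at 60 °C/hr, buffer-referenced. Melting temperature (Tm) taken from the thermograms as the stability measure.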

A further data set has as its target T1, human NaPi2b (Homo sapiens, UniProt O95436).
T1 construct: host or cells: HEK293-6e
T1 sequence (O95436 1-690): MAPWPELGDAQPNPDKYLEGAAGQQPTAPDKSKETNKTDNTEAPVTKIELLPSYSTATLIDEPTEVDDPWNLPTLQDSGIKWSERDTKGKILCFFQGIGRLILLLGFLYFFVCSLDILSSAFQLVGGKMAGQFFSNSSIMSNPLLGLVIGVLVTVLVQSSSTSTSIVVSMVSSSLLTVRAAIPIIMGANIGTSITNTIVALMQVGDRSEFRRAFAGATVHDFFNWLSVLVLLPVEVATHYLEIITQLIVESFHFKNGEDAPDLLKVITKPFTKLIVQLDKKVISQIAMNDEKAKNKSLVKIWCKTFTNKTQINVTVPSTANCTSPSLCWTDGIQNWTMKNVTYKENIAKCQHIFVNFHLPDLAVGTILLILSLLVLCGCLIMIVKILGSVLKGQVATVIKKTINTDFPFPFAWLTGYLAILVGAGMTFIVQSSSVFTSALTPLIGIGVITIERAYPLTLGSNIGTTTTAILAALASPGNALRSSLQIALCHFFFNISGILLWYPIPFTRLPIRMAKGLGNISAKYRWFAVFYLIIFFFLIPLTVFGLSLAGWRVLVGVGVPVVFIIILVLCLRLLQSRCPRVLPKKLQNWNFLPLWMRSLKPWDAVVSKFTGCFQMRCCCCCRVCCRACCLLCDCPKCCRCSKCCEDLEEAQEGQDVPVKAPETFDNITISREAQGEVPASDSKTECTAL
Kind of data set: Flow cytometry binding to HEK293-6e cells transfected with human NaPi2b (Example 5). The conditions noted are these: transfected HEK293-6e cells, 18-24 hours at 4° C. The method, then:
The binding cross-reactivity of humanized antibody variant v29456 to human, cynomolgus and mouse NaPi2b was assessed by flow cytometry using HEK293-6e transfected cells.
Briefly, HEK293-6e cells were transfected for ˜24 hours to transiently express human NaPi2b, cynomolgus or mouse NaPi2b, at 1 μg of DNA per 1 million cells. Following transfection, 50,000 cells per well were seeded in V-bottom 96-well plates and incubated with 200 nM of primary antibody for 18-24 hours at 4° C. to prevent internalization. Post-incubation, cells were washed and stained with anti-Human IgG Fc AF647 conjugate (Jackson Immuno Research Labs, West Grove, PA, Cat. No. 109-605-098, Lot. No. 124868) at 4° C. for 1 hour. Following staining and washing, fluorescence was detected by flow cytometry on BD LSRFortessa™ Cell Analyzer (BD Biosciences, Franklin Lake, NJ) with 10,000 minimum events collected per well. The AF647/APC-A GeoMean (fluorescence signal geometric mean, proportional to anti-Human AF647 binding) was calculated for the live singlet cell population for each primary antibody using FlowJo™ v8 software (BD Biosciences, Franklin Lake, NJ). The Bmax and Kd of each primary antibody were calculated using GraphPad Prism Version 9 (GraphPad Software, San Diego, CA)
For orientation: A flow cytometer gives signals particle by particle.

The test system of a further data set is dsDNA. The data set can be described thus: NS-ELISA non-specific binding, dsDNA. The settings on record: mAb at 100 nM. How it is done:
The isoelectric point was measured by capillary isoelectric focusing (cIEF), the propensity for self-aggregation was measured by Affinity-capture self-interaction nanoparticle spectroscopy (AC-SINS) and non-specific binding was measured by NS-ELISA, as described below.
NS-ELISA was used to measure the propensity of the antibodies to bind to a range of biomolecules to emulate the undesirable non-specific interactions to biological matrices in vivo as described below.
NS-ELISA was carried out in Corning®96-well EIA/RIA Easy Wash™ Clear Flat Bottom Polystyrene High Bind Microplate coated overnight at 4° C. with 50 μL of Heparin (Sigma, H3149) diluted with 50 mM sodium carbonate pH 9.6 to a final concentration of 250 μg/mL. The plate was incubated for 2 days at room temperature, wells that were coated with heparin were not covered to allow air dry. […] Reactions were stopped after approximately 10 minutes by adding 100 μL of 1 M HCl to each well, and absorbance was read at 450 nm. Binding scores were calculated as the ratio of the ELISA signal of the antibody (antibody-treated) to the signal of a well containing buffer instead of the primary antibody (untreated). The cutoffs considered for each binding molecule (ssDNA, KLH, insulin, dsDNA and heparin) were internally calculated, based on the average of Zymeworks Inc. produced antibodies and antibodies benchmarks published in the literature.
On the technique in general: An ELISA detects its analyte on a solid surface through an enzyme-linked reagent.

B1: v29456: humanized anti-NaPi2b IgG1/kappa antibody H1L2; VH SEQ ID NO:24, VL SEQ ID NO:29 (antibody, V domains shown)
VH: QVQLVQSGAEVKKPGASVKVSCKASGFTFTSYNVHWVRQAPGQGLEWMGAISPGNGDLSYAQKFQGRVTMTRDTSTSTVYMELSSLRSEDTAVYYCARGRTGMGAVDYWGQGTLVTVSS
VL: DVQMTQSPSSLSASVGDRVTITCRASQDVYSYLNWYQQKPGKAVKLLIYYTSRLQSGVPSRFSGSGSGTDYTLTISSLQPEDFATYYCQQYNIFPWTFGQGTKLEIK
modifications: v29452, v29456, v29460 VH (H1); v29453, v29454, v29455, v29456 VL (L2)
With B1, the “Fab Tm” value in data set [1] stood at 77.9 °C. The “Bmax (APC-A GeoMean), Hu NaPi2b” value in the data set with human NaPi2b is 2,538 APC-A GeoMean. Further, the Kd in the data set with human NaPi2b (highest antibody concentration 200 nM, read-out: Apparent Kd (nM), Hu NaPi2b) is 5.2 nM. Besides, the “NS-ELISA binding score (ratio of signal between antibody-treated and untreated), dsDNA” value in the data set with dsDNA was 1.07.
